Data reported in the DeepSol protein solubility set.

Experiment: soluble on expression in E. coli; label from the status in PepcDB or PDB records

MGSDKIHHHHHHMNFILELLRREQGRQQKELEFSQLPYQQRVAQLKEQKLPLFFYKYHSLHSHNPNKPQEKWEHASDYLINSRFYLSRPANFNDPFDMRAYFTDSVPKEKKRYFLDQLLKIRTPQLTEKDRVLEVKKLLDNPEKLRTIHKLTLDEAVDSFGVSCLSTAPCNILMWSHYANHHRGIAFQFNFAIDIFSFKWLQPVSYSNDFPGIEYFERRDNKYSIALLTKHHGWEYEKEWRIVKPNGAGTYQDFNSKILTGVILGCRIDRKDEDKIRTMIEQRKEQGLSSVKLYKLRQHESRYKLVIKHVE
soluble on expression in E. coli: not soluble

SAASGEEDMSELSPAAAPNLDWYEKPEETHAPEVDLETVIPPAQEPSNPAEPFCPRDLVPVVFPGPVSQEDCCQFTCELLKHILYQRHQLPLPYEQLKHFYRKAPQAEDTARKKAWLATEARNRKCQQALAELESVLSHLRDFFARTLVPQVLILLGGNALSPKEFYELDLSRLAPFGVDQGLNTAACLRRLFRAIFLADPFSELQTPPLMGTIVMVQGHRDCGEDWFQPKLNYRVPSRGHKLTVTLSCGRPSVPAMASEDYIWFQAPVTLKGFHE
soluble on expression in E. coli: soluble

MPHLALLISKGAIMDRIIQSPGKYIQGADVINRLGEYLKPLAERWLVVGDKFVLGFAQSTVEKSFKDAGLVVEIAPFGGECSQNEIDRLRGIAETAQCGAILGIGGGKTLDTAKALAHFMGVPVAIAPTIASTDAPCSALSVIYTDEGEFDRYLLLPNNPNMVIVDTKIVAGAPARLLAAGIGDALATWFEARACSRSGATTMAGGKCTQAALALAELCYNTLLEEGEKAMLAAEQHVVTPALERVIEANTYLSGVGFESGGLAAAHAVHNGLTAIPDAHHYYHGEKVAFGTLTQLVLENAPVEEIETVAALSHAVGLPITLAQLDIKEDVPAKMRIVAEAACAEGETIHNMPGGATPDQVYAALLVADQYGQRFLQEWE
soluble on expression in E. coli: not soluble

MNYPVNPDLMPALMAVFQHVRTRIQSELDCQRLDLTPPDVHVLKLIDEQRGLNLQDLGRQMCRDKALITRKIRELEGRNLVRRERNPSDQRSFQLFLTDEGLAIHQHAEAIMSRVHDELFAPLTPVEQATLVHLLDQCLAAQPLEDI
soluble on expression in E. coli: soluble

MTIDTELTNGSSESVPFVFIGGGNMAAAIIKGCQNKGFTPKSNIVIGVQTEKSAEKWRQLGYKNVFTNTLEMLERYSTAIYVICVKPQVFEEVVSSWPVNSRPEFIISVMAGVPLKVLNAKLPFVSGNTTIVRLMPNVASSIGAGASTMCYEKNEKIMNQDSHIELAREFAECVGTVELIPERCFNPAMAIGGSSPAWTFMYIESLADGAVAQGLGRAEAKRLAAQAVLGAAQMVLNSNSGFDIETQHFGSLKDMVCSPGGTTIEGVRALEKNGFRYAVMEAVVAASTKADEMAKSLAK
soluble on expression in E. coli: soluble

MGHHHHHHSHMPADRSIWQESCPVSFSALKKWIFLPNSTKIKEKRSSFPVRGPLTFDGWYPRDHKPSAPPTNEEERRAAAVKYGLRPEDYQSMDKDDVIKFAGDYPDLGVITYDHKDPYEAWTDRQNRRNWGELVPIDMMRYRGDRLTFTGLEAEDYTTWNSIVMCLRVLVPMALLAWYFTNEHPNALRWKNPAMPKQYSYDFYRAYPFDDPRKYPIVNYSFDLE
soluble on expression in E. coli: not soluble

MGSDKIHHHHHHGCNQSSKSDTKKEVTSKVGTYASVDCSTFTKSKDLPKGASCGYLTVPEKHAIKGQSASKKTMEIAVLKIPATKTEAKADPVVYLQGGPGYSAIDSLEDFTQSKAKYLWNDRDFYLVDQRGTGHAKPAYKCTEFNTVKGSIEQVKACKARLKAKGVDFSAYQSVQSAHDFIMLRKALKLDSWNLYGASYGTRLAETIIREDSQGVRSVILDGVFPIEVNGLSDTPWATYATLDRIVANCDASINCASEILKPMIESIIERLQNQGEEQAAIRFVNYIASLAGDARVVPLILAIDKDLNIIINEKDNEEAEGYFAPMALSVVCAEEYAFLNQTALEGRNDKNWSTTTTLTVNKMFHEGFDIDSCKAWDVAAADSIETQAVTSNLPILVINGGNDHQTPPAWGELVVKNMPNAQLFTNPQGGHVQLTSQNPYRNCIDGITMAFLAAPDQKIKTQCTSMIPVFKYN
soluble on expression in E. coli: not soluble

MAGQLPRRIIKETQRLLADPVPGISANPDESNARYFHVMIAGPDDSPFAGGVFKLELFLPEEYPMAAPKVRFMTKIYHPNIDKLGRICLDILKDKWSPALQIRTVLLSIQALLSAPNPEDPLATDVAEQWKTNEAEAIKTAKQWTMNYAQA
soluble on expression in E. coli: not soluble

MAFICELDEQWSYVGSKARQHWLGYAYNTKTGGVLAYTFGPRTDQTCRELLALLTPFNIGMLTSDDWGSYGREVPKNKHLTGKIFTQRIERNNLTLRTRIKRLGRKTICFSRSVEIHEKVIGAFIEKHMFY
soluble on expression in E. coli: not soluble

MRIQVNAKGAARLLSRHLWVFRRDVVSGPETPGLYPVYWGRRFLALALYNPHTDLAVRAYRFAPAEDPVAALLENLAQALARREAVLRQDPEGGYRLVHAEGDLLPGLVVDYYAGHAVVQATAHAWEGLLPQVAEALRPHVQSVLAKNDARTRELEGLPLYVRPLLGEVPERVQVQEGRVRYLVDLRAGQKTGAYLDQRENRLYMERFRGERALDVFSYAGGFALHLALGFREVVAVDSSAEALRRAEENARLNGLGNVRVLEANAFDLLRRLEKEGERFDLVVLDPPAFAKGKKDVERAYRAYKEVNLRAIKLLKEGGILATASCSHHMTEPLFYAMVAEAAQDAHRLLRVVEKRGQPFDHPVLLNHPETHYLKFAVFQVL
soluble on expression in E. coli: soluble

MGSDKIHHHHHHMGKPRIVILGGGFGGLYTARALHRTFRDTAEIEVITAENYFVFQPLLPEVGAGSVTPIHATSPYRFLLKGVGIRKAMIDSVDFAAKRVTVFQGVQRRPTEVPYDHLVVALGQTVDLSRTPGLEAHALTMKTLEDARRLRAHVIERLEHADITNLPEVKRGALTFTVIGGGFSGIETVGEMAELIDRSLKYYPNVSRDEVRIIVLEFADKVLAEMPEKLRAYAQAQLEKRGVEVCLNTGIASATGTQITTTDGDVIDTRTVVATIGNAPAPVVKRMDLPLTQGRIAVERDLSVPGRDGVWSLGDCALIPMVEDANAREDYAPPTAQFAVREAKQLAANIKRAVDGTALKPFEYTSKGSMASLGARRGIADVMGIRLTGFLAWVLWRAYYVAFLPGFPAKVWVLSHWVLDWVTPRSLVNLSSPKTDASRHIRYAKGDRIYETGNRADTFFTIIEGAVEITNAKGHDGQPTTRRIEPGGHFGERLILGATRRVATARALEDTVVLAMGRDEFLKLTRALPALRDYFEAHLAEKGLDWAPEPDERRDAAE
soluble on expression in E. coli: not soluble

MSLKITDVQLTAIGMPRLTGFVNKHVIVQLFTDEGIEGIGEMSDFSHLPKYAVDIVDLERTLKQILVGKNPFDIAPINTELNGNFPEAMYYYEKGSFIRNGVDTALYDLCAKALGVSVSDLLGGRQREKIKVCFPIFRHRFMDEVEANLELVKKQYEKGFDVFRLYVGKNVDADEAFLAGVYNEFGGKVKVKSLDFSHLLDWKEALRITRRLAKYPIDLVESPALRNDFAGLHHFRMRCELPVSEHVWSLRQQSEMIKHDSVDIFNIAPVFIGGITQARKAADAAAVAEKSVLIGTTQELSIGTTAMAYFGSTLDHLNYISDPTGPELYVGDVVKNKVNYENGYLHLPERSTIGLGMELDWEKVEQYRVESLNWEDVSVHQLQDRTAQTRAEGHHHHHH
soluble on expression in E. coli: soluble

MGTSFRQYFKIVPALTEELKREAYRVRHSVYCEDLQFESSRSDGFEIDEYDAHSLHLLIRSINNDTFIGCTRIIRPSSNSNDRRLPFEKTCAQTLDRSIIDPSRLPADKIGEVSRLAVIAAFRRRKGEKNHPINISEEDFSTGPMMRFPYIPLSLYIGTIELARIHDIRVLFMLTEERLASHFSRLGAQLEPIGAPVEHRGLRFPSMVEINSIISNMRPIFRPLYQAIAEDIKAELEKKNH
soluble on expression in E. coli: not soluble

GPGSMGRASKDKRDIYYRKAKEEGYRARSAYKLLQIHEEFNILDPAEIRTGAVDLCAAPGSWSQVLAQHFKMISANLTAASEGDSLPAQTPRVVAVDLQEMAPIDGVTLLQGDITSEVTAREIIRLLNAPTSTGVVRTDDEQQQPQPASSSFSSSAPSPALGASPRKADIVLCDGAPDVTGMHELDEYLQHHLLLAALHITTFVLRAGGCFLTKIFRGPNTAFLVAKSQLFFQQVRVVKPKSSRNASMESFLLCQGFRMPLGYVPRFVGAAAPAAASSATTGCSRGAASASAGCGSRVEADNEEGVKGERSETAIGSGGPLRASGFTPEAPLYCYDTTASFSHASDGGAAAAATVHDVAHHNQRTSCTLADGVLAPFLSCGDLSGFDADMCYDRDEDADVLEPVQPPLQAPYLAAAAASPSQLAGVADGRDTEADASQKKKIRVESPTAIAGRDSSTGGEEQQ
soluble on expression in E. coli: not soluble

MYATFSALKKYGYAELSIQRIASELNFSKSTLYHHFSDKDDLLLSFFNFLLDELEQFCKSSSTNEPKKELLDFVDVLLDEGITQKEQSAKGEILAAYIELRSQAIHDTKYRERITRTDKRFVKQIAVIIDAGIDKGVFQPVEPEETAEFILAILNGILMQGSTRKRAPFQQLRQNLIEYIQTELFVESATRS
soluble on expression in E. coli: not soluble

VQLLEQSGAELVKPGASVKLSCTASGFNIEDSYIHWVKQRPEQGLEWIGRIDPEDGETKYAPKFQGKATITADTSSNTAYLHLRRLTSEDTAIYYCGRGAYYIKEDFWGQGTTLTVSSASTKGPSVFPLAPSSKAGGTAALGCLVKDYFPEPVTVSWNSGALTSGVHTFPAVLQSSGLYSLSSVVTVPSSSLGTQTYICNVNHKPSNTKVDKKVEPA
soluble on expression in E. coli: soluble

MSFNTIIDWNSCTAEQQRQLLMRPAISASESITRTVNDILDNVKARGDEALREYSAKFDKTTVTALKVSAEEIAAASERLSDELKQAMAVAVKNIETFHTAQKLPPVDVETQPGVRCQQVTRPVASVGLYIPGGSAPLFSTVLMLATPASIAGCKKVVLCSPPPIADEILYAAQLCGVQDVFNVGGAQAIAALAFGTESVPKVDKIFGPGNAFVTEAKRQVSQRLDGAAIDMPAGPSEVLVIADSGATPDFVASDLLSQAEHGPDSQVILLTPAADMARRVAEAVERQLAELPRAETARQALNASRLIVTKDLAQCVEISNQYGPEHLIIQTRNARELVDSITSAGSVFLGDWSPESAGDYASGTNHVLPTYGYTATCSSLGLADFQKRMTVQELSKEGFSALASTIETLAAAERLTAHKNAVTLRVNALKEQA
soluble on expression in E. coli: soluble

GSHMPNYDTSIDIEDIKKILPHRYPFLLVDKVIYMQPNKTIIGLKQVSTNEPFFNGHFPQKQIMPGVLQIEALAQLAGILCLKSDDSQKNNLFLFAGVDGVRWKKPVLPGDTLTMQANLISFKSSLGIAKLSGVGYVNGKVVINISEMTFALSK
soluble on expression in E. coli: soluble

MAGDPMMSITIEQIRGALAGVADPQTGLELNVCVKDRDIHLAADPAALTIELGYPAGGVADSVRALAGAALAAAGLGAVRVAVTWNIIAHAVQPGLKPLPQVRNIIAVASGKGGVGKSTTAVNLALALAAEGARAGLLDADIYGPSVPAMLGLAGRPESRDNKTMEPLVGHGLQANSIGLLIDADAPAIWRGPMVTQALEQLLRQTNWRDLDYLVVDMPPGTGDIALTLAQKVPVAGAVIVTTPQDIALLDARKGLRMFQKVHVPILGVVENMAVHICPQCGHAEHIFGAGGGRRVAEQYEVPWLGSLPLQRAIREQTDAGNPTVAAEPESEVAGIYRDIARRVAARIAGLPRDMAGKLPAVVVRPALEHHHHHH
soluble on expression in E. coli: not soluble

MGSDKIHHHHHHLKVVCISDTHEQLHNVTVPDGDVLIHAGDFTNNGKREELIKFNEEMTRFPHKYKLVVAGNHELGFDHDENQGERQDADKGLGTEDGYNILTNVTYLQDKGVTIDGVTFFGSSYHPLRGFPFYRNRAEQLAECWKAVPNDTNVLITHTPPLGYLDQFGDERWGCRDLLKTVERIQPAYHIFGHVHEQHGVLSNGNTVCYKLYENEF
soluble on expression in E. coli: not soluble

MDMHSGTFNPQDFAWQGLTLTPAAAIHIRELVAKQPGMVGVRLGVKQTGCAGFGYVLDSVSEPDKDDLLFEHDGAKLFVPLQAMPFIDGTEVDFVREGLNQIFKFHNPKAQNECGCGESFGV
soluble on expression in E. coli: not soluble
